Assay [1] addresses T1, human ILT7-his protein (human, UniProt P59901 28-446).
T1 construct: also called human ILT7 protein
Nature of the assay: SPR, Biacore 8K, antibody captured on the chip, human ILT7-his as analyte, 25° C. From the text:
(§1) Methods: The binding affinity of the humanized cmAb12 antibody, hu-cmAb12, was further measured by surface plasmon resonance (SPR) technology with Biacore 8K. As used herein, “hu-cmAb12” refers to a specific antibody clone variant of the Hu12-04 antibody of Examples 8 and 9. The hu-cmAb12 antibody includes a VL having the amino acid sequence of SEQ ID NO: 19, a VH having the amino acid sequence of SEQ ID NO: 26, and a CH having the amino acid sequence of SEQ ID NO: 55. hu-cmAb12 or Tab1 were immobilized on CM-5 chip. The assay was performed at 25° C. and the running buffer was 1×HEPES (10 mM HEPES, 150 mM NaCl, 3 mM EDTA) with 0.005% Tween-20, pH 7.4. Diluted antibodies were captured on the sensor chip through Fc capture method. Human ILT7-his was used as the analyte, and running buffer was used as the dissociation phase. Similarly, ELISA was conducted as described above. An isotype control antibody and reference anti-ILT7 antibody Tab1 were used as controls.
On the technique in general: Surface plasmon resonance follows binding to a sensor surface in real time, without labels.

The target in assay [2] is T2, full-length human ILT7 on cells (human, UniProt P59901 24-499). Nature of the assay: cell-based or functional assay.
T2 sequence (P59901 other isoform, or with tags, fused parts or gaps): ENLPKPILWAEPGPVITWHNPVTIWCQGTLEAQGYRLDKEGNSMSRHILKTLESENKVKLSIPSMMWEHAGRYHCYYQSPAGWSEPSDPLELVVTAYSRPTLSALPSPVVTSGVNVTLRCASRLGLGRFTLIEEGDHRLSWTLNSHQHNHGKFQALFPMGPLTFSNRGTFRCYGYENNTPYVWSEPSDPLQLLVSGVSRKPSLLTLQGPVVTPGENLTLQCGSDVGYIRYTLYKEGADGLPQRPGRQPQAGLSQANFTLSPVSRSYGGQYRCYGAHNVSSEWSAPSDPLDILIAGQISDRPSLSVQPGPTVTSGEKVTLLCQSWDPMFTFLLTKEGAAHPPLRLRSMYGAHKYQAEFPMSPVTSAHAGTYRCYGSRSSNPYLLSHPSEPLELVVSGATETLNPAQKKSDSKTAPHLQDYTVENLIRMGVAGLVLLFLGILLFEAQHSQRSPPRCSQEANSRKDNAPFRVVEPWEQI
Assay [3] concerns the target T2, full-length human ILT7 on cells. In words: flow cytometry on 293F-human ILT7 cells. On the procedure: (§2) Methods: The binding affinities of chimeric anti-ILT7 antibodies identified from the screening, including cmAb12, to human ILT7 or cynomolgus ILT7 expressed on cell membrane were measured by flow cytometry. Vectors containing coding sequences for full-length cynomolgus ILT7 (SEQ ID NO: 6) and hFcεRiγ (SEQ ID NO: 7) were generated. […] Both cell lines were seeded, resuspended, and incubated with the chimeric antibodies at 4° C. for 1 hour. Cells were then washed with cold FACS buffer (PBS+2% FBS), resuspended, and incubated with secondary antibody at 4° C. for 1 hour. hIgG1 and Tab1 were used as controls.
(§3) Cells were washed with cold FACS buffer (PBS+2% FBS) by centrifuging, followed by addition of secondary antibodies, and incubation at 4° C. for 1 hour. An isotype control antibody and reference anti-ILT7 antibody Tab1 were used as negative and positive controls. The concentration-MFI curves of FACs were then determined.
In general terms: Flow cytometry measures light scatter and fluorescence of single cells or particles in a stream.

For assay [4], the target named is T1, human ILT7-his protein. In words: SPR (Biacore 8K), antibody captured through Fc, human ILT7-his as analyte, 25 C.
Text: as §1

For assay [5], the target named is T1, human ILT7-his protein. In words: ELISA, plate coated with human ILT7-his. On the procedure:
Methods: The binding of the chimeric anti-ILT7 antibodies identified from the screening, including cmAb12, to human ILT7-his protein was measured by ELISA, along with an isotype antibody hIgG1 as negative control and a reference anti-ILT7 antibody Tab1. 96-well ELISA plates were coated with human ILT7-his in PBS (2 μg/ml) overnight at 4° C. Chimeric antibodies were added to the wells and co-incubated with the coating protein at 37° C. for 1 hour, followed by the addition of secondary HRP labelled antibody. After incubation at 37° C. for 1 more hour, TMB substrate was added to wells and incubated at RT for 15 min. 1 N HCl was added to terminate the reactions. The absorbance at 450 nm was measured with a microplate reader.
Methods: The binding affinity of the humanized cmAb12 antibody, hu-cmAb12, was further measured by surface plasmon resonance (SPR) technology with Biacore 8K. As used herein, “hu-cmAb12” refers to a specific antibody clone variant of the Hu12-04 antibody of Examples 8 and 9. The hu-cmAb12 antibody includes a VL having the amino acid sequence of SEQ ID NO: 19, a VH having the amino acid sequence of SEQ ID NO: 26, and a CH having the amino acid sequence of SEQ ID NO: 55. hu-cmAb12 or Tab1 were immobilized on CM-5 chip. The assay was performed at 25° C. and the running buffer was 1×HEPES (10 mM HEPES, 150 mM NaCl, 3 mM EDTA) with 0.005% Tween-20, pH 7.4. […]
For orientation: ELISA stands for enzyme-linked immunosorbent assay.

The target in assay [6] is T3, full-length cynomolgus ILT7 on cells (cynomolgus, UniProt P59901 24-499 (human entry)).
T3 construct: also called CHOK1-cynomolgus ILT7 cells
T3 sequence (P59901 other isoform, or with tags, fused parts or gaps limits assumed): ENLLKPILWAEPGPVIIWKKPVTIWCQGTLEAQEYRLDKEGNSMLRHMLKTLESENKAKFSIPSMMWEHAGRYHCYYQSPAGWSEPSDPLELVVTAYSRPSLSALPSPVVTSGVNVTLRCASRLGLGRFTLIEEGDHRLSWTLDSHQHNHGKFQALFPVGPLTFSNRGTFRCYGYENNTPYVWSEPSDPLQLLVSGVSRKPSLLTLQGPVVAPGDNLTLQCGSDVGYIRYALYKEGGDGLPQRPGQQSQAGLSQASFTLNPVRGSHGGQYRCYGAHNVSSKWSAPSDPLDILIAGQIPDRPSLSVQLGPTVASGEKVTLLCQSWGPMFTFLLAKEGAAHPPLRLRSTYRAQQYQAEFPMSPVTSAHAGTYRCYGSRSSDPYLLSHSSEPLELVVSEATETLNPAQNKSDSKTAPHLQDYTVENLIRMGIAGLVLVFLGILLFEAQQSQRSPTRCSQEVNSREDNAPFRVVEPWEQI
In words: flow cytometry on CHOK1-cynomolgus ILT7 cells. On the procedure: as §2, §3

For assay [7], the target named is T4, LILRA3/ILT6 (UniProt Q8N6C8 24-439). In words: ELISA, plate coated with 1 µg/ml LILR protein. On the procedure: (§4) Methods: The binding specificities of the chimeric antibodies, including cmAb12, for ILT7 over its related 10 LILR superfamily member proteins were evaluated by ELISA. Plates coated with 1 μg/ml LILR superfamily protein as indicated were incubated with chimeric antibodies at 37° C. for 1 hour, followed by the secondary antibody.
T4 sequence (Q8N6C8 24-439 limits assumed): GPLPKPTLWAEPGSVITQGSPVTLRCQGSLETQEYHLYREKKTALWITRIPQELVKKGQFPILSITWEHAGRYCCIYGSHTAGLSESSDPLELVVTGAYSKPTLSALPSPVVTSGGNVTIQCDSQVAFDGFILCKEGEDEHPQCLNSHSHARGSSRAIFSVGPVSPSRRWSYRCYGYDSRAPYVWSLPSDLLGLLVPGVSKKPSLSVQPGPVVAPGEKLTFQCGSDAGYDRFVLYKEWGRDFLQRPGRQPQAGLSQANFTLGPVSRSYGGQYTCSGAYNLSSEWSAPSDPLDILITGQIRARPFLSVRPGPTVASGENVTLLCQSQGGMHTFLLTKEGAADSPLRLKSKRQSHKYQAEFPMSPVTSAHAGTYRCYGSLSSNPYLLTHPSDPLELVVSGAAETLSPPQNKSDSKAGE

The target of assay [8] is T5, LILRA5/ILT11 (UniProt A6NI73 42-268, limits assumed). Nature of the assay: ELISA, plate coated with 1 µg/ml LILR protein. On the procedure: as §4
T5 sequence (A6NI73 42-268 limits assumed): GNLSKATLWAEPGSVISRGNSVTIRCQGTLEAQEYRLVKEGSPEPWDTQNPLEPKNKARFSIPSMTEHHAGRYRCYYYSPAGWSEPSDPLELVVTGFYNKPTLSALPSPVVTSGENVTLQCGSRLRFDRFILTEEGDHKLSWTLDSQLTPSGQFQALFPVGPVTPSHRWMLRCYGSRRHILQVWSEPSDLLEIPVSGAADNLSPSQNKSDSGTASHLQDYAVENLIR
Assay [9] concerns the target T6, LILRA2/ILT1 (UniProt Q8N149 24-449, limits assumed). In words: ELISA, plate coated with 1 µg/ml LILR protein. The method, then:
as §4

The target in assay [10] is T7, LILB5 (UniProt O75023 24-458, limits assumed).
T7 construct: also called LILRB5 (printed as LILB5)
T7 sequence (O75023 24-458 limits assumed): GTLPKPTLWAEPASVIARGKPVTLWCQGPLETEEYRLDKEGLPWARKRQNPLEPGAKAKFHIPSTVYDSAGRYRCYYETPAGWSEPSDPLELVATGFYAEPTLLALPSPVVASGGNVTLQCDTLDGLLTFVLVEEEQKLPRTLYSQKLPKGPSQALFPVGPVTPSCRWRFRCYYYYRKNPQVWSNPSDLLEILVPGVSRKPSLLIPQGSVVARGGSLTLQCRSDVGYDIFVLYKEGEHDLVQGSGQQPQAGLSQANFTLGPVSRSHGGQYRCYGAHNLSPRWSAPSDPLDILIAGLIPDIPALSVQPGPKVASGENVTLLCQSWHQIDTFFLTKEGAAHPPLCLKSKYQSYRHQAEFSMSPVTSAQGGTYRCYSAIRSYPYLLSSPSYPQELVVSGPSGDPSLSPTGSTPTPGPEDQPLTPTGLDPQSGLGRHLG
Nature of the assay: ELISA, plate coated with 1 µg/ml LILR protein. The method, then:
as §4

For assay [11], the target named is T8, LILRA6/ILT8 (UniProt Q6PI73 24-447, limits assumed). In words: ELISA, plate coated with 1 µg/ml LILR protein. On the procedure: as §4
T8 sequence (Q6PI73 24-447 limits assumed): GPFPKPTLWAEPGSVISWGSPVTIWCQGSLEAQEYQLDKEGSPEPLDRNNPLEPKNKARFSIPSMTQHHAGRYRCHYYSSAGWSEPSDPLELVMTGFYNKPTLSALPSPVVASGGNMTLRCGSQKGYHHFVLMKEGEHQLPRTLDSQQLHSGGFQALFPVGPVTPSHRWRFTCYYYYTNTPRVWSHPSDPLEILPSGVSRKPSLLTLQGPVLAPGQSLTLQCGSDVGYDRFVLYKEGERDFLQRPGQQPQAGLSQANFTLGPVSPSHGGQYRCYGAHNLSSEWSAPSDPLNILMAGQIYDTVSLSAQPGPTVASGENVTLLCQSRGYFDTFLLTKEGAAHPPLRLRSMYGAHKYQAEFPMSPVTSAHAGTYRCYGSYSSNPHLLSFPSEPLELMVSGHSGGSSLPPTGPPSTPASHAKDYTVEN
In assay [12] the target is T9, LILRB1/ILT2 (UniProt Q8NHL6 24-461, limits assumed). In words: ELISA, plate coated with 1 µg/ml LILR protein. On the procedure:
as §4

Assay [13] addresses T10, LILRA1 (UniProt O75019 17-461, limits assumed). In words: ELISA, plate coated with 1 µg/ml LILR protein. The method, then:
as §4

In assay [14] the target is T11, LILRB4/ILT3 (UniProt Q8NHJ6 22-259). Nature of the assay: ELISA, plate coated with 1 µg/ml LILR protein. On the procedure:
as §4

Assay [15] has as its target T12, LILRB2/ILT4 (UniProt Q8N423 22-460, limits assumed). Nature of the assay: ELISA, plate coated with 1 µg/ml LILR protein. The method, then:
as §4

The target in assay [16] is T13, LILRB3/ILT5 (UniProt O75022 24-443, limits assumed). Nature of the assay: ELISA, plate coated with 1 µg/ml LILR protein. The method, then: as §4
T13 sequence (O75022 24-443 limits assumed): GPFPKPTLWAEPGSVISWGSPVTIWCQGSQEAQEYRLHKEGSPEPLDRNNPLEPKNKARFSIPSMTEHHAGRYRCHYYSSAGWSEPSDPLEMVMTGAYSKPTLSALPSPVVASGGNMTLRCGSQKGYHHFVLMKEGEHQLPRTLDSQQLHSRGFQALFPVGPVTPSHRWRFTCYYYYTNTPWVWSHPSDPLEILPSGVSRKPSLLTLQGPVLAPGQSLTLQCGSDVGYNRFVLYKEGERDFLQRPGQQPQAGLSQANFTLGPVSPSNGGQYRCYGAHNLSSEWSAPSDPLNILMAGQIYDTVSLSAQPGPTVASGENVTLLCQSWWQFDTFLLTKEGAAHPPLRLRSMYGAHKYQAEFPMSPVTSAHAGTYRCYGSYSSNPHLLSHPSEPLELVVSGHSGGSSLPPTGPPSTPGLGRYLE
Assay [17] has as its target T4, LILRA3/ILT6. Nature of the assay: ELISA, plate coated with 1 µg/ml LILR superfamily protein. The method, then: as §4
In assay [18] the target is T5, LILRA5/ILT11. The description is as above. On the procedure: as §4
Assay [19] has as its target T6, LILRA2/ILT1. The assay is described as above. The method, then: as §4
In assay [20] the target is T7, LILB5. The description is as above. The method, then: as §4
The target of assay [21] is T8, LILRA6/ILT8. Described as above. On the procedure: as §4
Assay [22] has as its target T9, LILRB1/ILT2. Described as above. On the procedure:
as §4

Assay [23] has as its target T10, LILRA1. Described as above. On the procedure: as §4
Assay [24] has as its target T11, LILRB4/ILT3. The description is as above. The method, then:
as §4

In assay [25] the target is T12, LILRB2/ILT4. The assay is described as above. On the procedure: as §4
Assay [26] addresses T13, LILRB3/ILT5. The assay is described as above. The method, then:
as §4

For assay [27], the target named is T2, full-length human ILT7 on cells. Nature of the assay: flow cytometry on 293F-human ILT7 cells, MFI.
The target of assay [28] is T3, full-length cynomolgus ILT7 on cells. Nature of the assay: flow cytometry on CHOK1-cynomolgus ILT7 cells, MFI.
Assay [29] concerns the target T1, human ILT7-his protein. Nature of the assay: ELISA, OD450; the x axis is labelled 'human ILT7 Conc (µg/ml)'.
The target in assay [30] is T3, full-length cynomolgus ILT7 on cells. Nature of the assay: flow cytometry on CHOK1-cynomolgus ILT7 cells, MFI. This is another data set of the same source.
In assay [31] the target is T1, human ILT7-his protein. In words: ELISA, plate coated with human ILT7-his, antibody titrated, OD450.
The target in assay [32] is T2, full-length human ILT7 on cells. In words: flow cytometry on 293F-human ILT7 cells, MFI. This is another data set of the same source.

The values that follow come from patent publication US20260265373A1 (INMAGENE PTE, published 2026).

The term Kd denotes the free concentration of one partner at which half of the binding sites on the other are occupied at equilibrium, for simple one-to-one binding. Low readings indicate a tighter complex, high ones a looser complex. What is called EC50 is the concentration giving half of the maximal effect. A word on the koff: it is the rate constant with which the complex falls apart. A word on the kon: it is the second-order rate constant of association. A lower kon goes with slower complex formation.

T1 sequence (P59901 other isoform, or with tags, fused parts or gaps): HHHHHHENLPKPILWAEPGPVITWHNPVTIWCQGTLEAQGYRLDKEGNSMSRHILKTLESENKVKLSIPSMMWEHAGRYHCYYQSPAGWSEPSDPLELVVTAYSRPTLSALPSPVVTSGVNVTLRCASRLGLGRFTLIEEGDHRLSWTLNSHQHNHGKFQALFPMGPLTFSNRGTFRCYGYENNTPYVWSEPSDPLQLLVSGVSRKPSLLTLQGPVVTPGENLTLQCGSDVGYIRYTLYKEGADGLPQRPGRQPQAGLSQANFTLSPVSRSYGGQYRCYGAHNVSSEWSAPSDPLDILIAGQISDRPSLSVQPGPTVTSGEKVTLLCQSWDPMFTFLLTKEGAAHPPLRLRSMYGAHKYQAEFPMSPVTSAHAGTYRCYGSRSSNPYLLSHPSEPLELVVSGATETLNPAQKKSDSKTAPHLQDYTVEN
T6 sequence (Q8N149 24-449 limits assumed): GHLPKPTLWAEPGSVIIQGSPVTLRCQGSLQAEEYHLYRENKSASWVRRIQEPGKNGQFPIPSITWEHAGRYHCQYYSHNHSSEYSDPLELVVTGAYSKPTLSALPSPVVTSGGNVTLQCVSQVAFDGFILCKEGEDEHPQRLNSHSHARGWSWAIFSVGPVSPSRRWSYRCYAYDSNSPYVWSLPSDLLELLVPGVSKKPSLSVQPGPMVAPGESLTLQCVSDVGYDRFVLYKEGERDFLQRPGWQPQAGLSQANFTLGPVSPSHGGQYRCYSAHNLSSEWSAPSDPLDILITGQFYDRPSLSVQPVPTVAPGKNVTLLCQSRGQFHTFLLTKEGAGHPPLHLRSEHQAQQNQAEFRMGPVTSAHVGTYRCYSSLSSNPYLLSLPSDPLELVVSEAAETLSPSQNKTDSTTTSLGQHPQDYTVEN
T10 sequence (O75019 17-461 limits assumed): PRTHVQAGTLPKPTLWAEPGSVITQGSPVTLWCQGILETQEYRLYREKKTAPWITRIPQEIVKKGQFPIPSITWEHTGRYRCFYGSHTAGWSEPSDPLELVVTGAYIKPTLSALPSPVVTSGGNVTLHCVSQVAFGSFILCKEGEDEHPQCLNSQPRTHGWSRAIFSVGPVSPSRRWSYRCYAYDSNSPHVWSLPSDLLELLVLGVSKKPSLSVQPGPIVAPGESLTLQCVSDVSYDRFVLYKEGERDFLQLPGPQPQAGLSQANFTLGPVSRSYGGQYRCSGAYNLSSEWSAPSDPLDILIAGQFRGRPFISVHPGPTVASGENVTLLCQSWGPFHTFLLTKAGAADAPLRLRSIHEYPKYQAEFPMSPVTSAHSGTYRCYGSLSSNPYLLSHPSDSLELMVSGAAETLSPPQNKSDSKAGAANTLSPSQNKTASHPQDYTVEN
T9 sequence (Q8NHL6 24-461 limits assumed): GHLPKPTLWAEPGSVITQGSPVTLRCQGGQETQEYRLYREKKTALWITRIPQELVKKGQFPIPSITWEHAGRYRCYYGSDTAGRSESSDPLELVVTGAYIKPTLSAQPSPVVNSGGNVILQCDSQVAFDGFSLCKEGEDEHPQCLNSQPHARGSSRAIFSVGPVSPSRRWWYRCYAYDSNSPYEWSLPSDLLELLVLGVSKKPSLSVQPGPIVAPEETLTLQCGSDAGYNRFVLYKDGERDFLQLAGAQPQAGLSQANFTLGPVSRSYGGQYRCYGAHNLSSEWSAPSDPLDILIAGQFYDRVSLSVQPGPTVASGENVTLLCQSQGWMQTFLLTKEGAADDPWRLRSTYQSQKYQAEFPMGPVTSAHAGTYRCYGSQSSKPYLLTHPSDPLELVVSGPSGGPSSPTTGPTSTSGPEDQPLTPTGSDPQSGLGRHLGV

B1: humanized antibody hu-cmAb12 (antibody, V domains shown)
VH: QVQLVQSGAEVKKPGASVKVSCKASGYTFTEYPMHWVRQAPGQRLEWMGMIYTDTGEPAYAEEFKGRVTITRDTSASTAYMELSSLRSEDTAVYYCARELGQNFDYWGQGTTVTVSS
VL: DIVLTQSPASLAVSPGQRATITCRASQSVSTSSYSYMHWYQQKPGQPPKLLIYYASNLESGVPARFSGSGSGTDFTLTINPVEAEDTANYYCQHSWDIPYTFGQGTKLEIK
modifications: Example 12: the antibody was conjugated with the dye Alexa488, which the letters do not carry.
notes: also called antibody clone variant of Hu12-04
In the case of B1, the dissociation constant Kd with human ILT7-his protein [1] amounted to 111 nM. In addition, in [2], the “NK-dependent ADCC activity (% Cytotoxicity), EC50” value amounted to 0.0038 nM; the “macrophage-dependent ADCP activity, EC50 (Donor 1)” value turned out to be 0.881 nM; the “macrophage-dependent ADCP activity, EC50 (Donor 2)” value was 2.17 nM; the “macrophage-dependent ADCP activity, EC50 (Donor 3)” value worked out at 1.58 nM. Further, in assay [2], the “neutrophil-dependent ADCC activity (% Cytotoxicity), EC50” value amounted to 16.1 nM. The EC50 in assay [3] came out at 0.343 nM. Also, in the assay with human ILT7-his protein [4], the koff came to 0.106 s⁻¹ and the on-rate (kon) amounted to 959000 M⁻¹ s⁻¹. Further, the EC50 with human ILT7-his protein [5] came out at 0.0791 µg/mL. Besides, in [6], a half-maximal effect (EC50) was put at 1.65 nM.

B2: chimeric antibody Ab12 (cmAb12) (antibody, human IgG1, V domains shown)
VH: QIQLVQSGPELKKPGETVKISCKASGYTFTEYPMHWVKQAPGKGFKWMGMIYTDTGEPAYAEEFKGRFAFSLETSASTAYLQINNLKNEDTATYFCVRELGQNFDYWGQGTTLTVSS
VL: DIVLTQSPASLAVSLGQRATISCRASQSVSTSSYSYMHWYQQKPGQPPKLLIKYASNLESGVPARFSGSGSGTDFTLNIHPVEEEDTATYYCQHSWDIPYTFGGGTKLEIK
notes: also called chimeric Ab12
With B2, the “ELISA OD 450 nM” value was found to be 0.1 OD450 with LILRA3/ILT6 [7]; 0.1 OD450 with LILRA5/ILT11 [8]; 0.2 OD450 in the assay with LILRA2/ILT1 [9]; 0.1 OD450 in the assay with LILB5 [10]; 0.1 OD450 in the assay with LILRA6/ILT8 [11]; 0.1 OD450 with LILRB1/ILT2 [12]. The “ELISA OD 450 nM” value is 0.1 OD450 with LILRA1 [13], 0.1 OD450 with LILRB4/ILT3 [14], 0.3 OD450 with LILRB2/ILT4 [15] and 0.1 OD450 with LILRB3/ILT5 [16]. For the same molecule, the EC50 in [3] turned out to be 0.312 nM; with human ILT7-his protein [5], 0.0751 nM; in [6] it was 0.939 nM. In addition, the binding result with LILRA3/ILT6 [17], with LILRA5/ILT11 [18], with LILRA2/ILT1 [19], with LILB5 [20], with LILRA6/ILT8 [21] and with LILRB1/ILT2 [22] was “no binding” throughout. Besides, the binding result in the assay with LILRA1 [23], with LILRB4/ILT3 [24], with LILRB2/ILT4 [25] and with LILRB3/ILT5 [26] was “no binding” each time.

B3: benchmark antibody daxdilimab (Tab1) (antibody, V domains shown)
VH: QVQLQQSGAEVKKPGASVKVSCKASGYTFTSYGISWVRQAPGQGLEWMGWISAYNGNTNYAQKLQGRVTMTIDTSTSTAYMELRSLRSDDTAVYYCARNGLWGWDSDAFDIWGRGTLVTVSS
VL: QSALTQPASVSGSPGQSITISCTGTSSDVGGYNYVSWYQQHPGKAPKLMIYDVSNRPSGVSNRFSGSKSGNTASLTISGLQAEDEADYYCSSYTSSSTVVFGGGTKVTVL
As to B3, in [2], the “NK-dependent ADCC activity (% Cytotoxicity), EC50” value stood at 0.0103 nM. Moreover, the EC50 in assay [27] amounted to 0.579 nM; in assay [28] it was 1.1 nM; in the assay with human ILT7-his protein [29], 0.0398 µg/mL; in assay [30], 2.46 nM; with human ILT7-his protein [31] it was 0.0682 nM; in [32], 0.383 nM. The molecule further had a Kd in the assay with human ILT7-his protein [4] of 71.3 nM. Further, the koff in the assay with human ILT7-his protein [4] turned out to be 0.0278 s⁻¹. In the assay with human ILT7-his protein [4], this molecule had a kon of 390000 M⁻¹ s⁻¹.
